Consider 1 protein from article PMC5923229 (2018).

The data set concerns the molecule itself.

B1: H46R/H48Q SOD1 with ebsulphur conjugated at Cys111 (enzyme)
chain: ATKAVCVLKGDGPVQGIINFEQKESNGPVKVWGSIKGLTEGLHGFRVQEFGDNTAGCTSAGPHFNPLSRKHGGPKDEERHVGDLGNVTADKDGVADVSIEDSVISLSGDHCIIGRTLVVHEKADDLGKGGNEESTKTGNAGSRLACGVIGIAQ
modifications: ebsulphur conjugated at Cys111
On to B1, for which binding was characterised by a dissociation constant (Kd) of 676 nM.
